Results published in patent US20250326867A1, “De novo designed chlorophyll special pair proteins” (University of Washington, priority 2024, published 2025).
Where a chain is given by its changes, count along the chain named.

B1: SP1 (designed binder)
chain: GGDSRELIARYQILLAELAAIRADIAAERTGDPYVRKLARELKRLAQEAAEEVKRDPSSSDVNMALLLILLMIELAVRALEAAERTGDPEVRELAAELVWLAVEAAEEVQRNPSSSDVWLALHLIMLAIWAAVAALEAAERTGDPEVRELARELVRLAVEAAEEVQRNPSSKEVYMALLLILIAILEAVLSLLRAERSGDPEKREKARERVREAVERAEEVQR
notes: De novo designed subunit of a C2 homodimer
B2: JF (designed binder)
chain: SGSGSSDELQARFLILSAKLQAEMAQIAAERTGDPRVRELARELKRLAQEAAEEVKRDPSSSEVNSNLALISMAIALAVLALLLARKAGDEEARDIAREAVEVAVRAAELILEGRDDQRAWTLWLIAHALLMAVYAARLGNSEVAELAVKVLRLAKELEKLLPSEEALFVVSMIGLAALQAAMAAAGGQEDYARDALRRLEEAIREAEENRSKESLEKVEEEGIEAMEQALRAIAGG
notes: Designed homodimer subunit, after TEV cleavage
B3: JG (designed binder)
chain: SGSGSSDELEARLLIISANLQAEMAQIAAERTGDPRVRELARELKRLAQEAAEEVKRDPSSSEVNQNLTLISMAIALAVLALLLARKAGDEEARDIAREAVEVAVRAAELILEGRDEQRAWTLFLIAHALLLAVLAARLGNSEVAELAVKVLRLAKELEKLLPSEIALFVVSMIGMAALQAAMAASGGQEDYARDALRRLEEAIREAEENRSKESLEKVMEEAIRAYEQALRALAGG
notes: as for B2
B4: JH (designed binder)
chain: SGSSEELAREAREAAIRLAQASTKLMEAMIRGDLKELAEALIELARAVQELARVAKEYGNDELAKLAAFLAAHIAMLAIWVLILAIREGDDEVRELAKTAIKLASTAAKIVLDALPTAEEVRIITLLAKLAEEAADKKNEDSALAVLIAAMAVLIALAALEAAQRAGIEEAEKAARLLLKLAGEAARKKNPEEAKAVYNAALLVSIALLLLQKAKRAGSEETRRLAEEMLRQALERARKKN
notes: as for B2
B5: D2K (designed binder)
chain: SGSGSREKELKQLISNLQILLLILLSQDPNNELVRKLQEKIKEAEEQGDPRRLKLIWWILALINILQALEQEDPNNELVKRLKELIKRALEEGDPRLLQLILLILHLIWLLQALEKEDPNNELVKRLKKLIEEALKEGDPRKLWQILALLLWIAQIQKLKKQDPNNELIKRAEETLEQSLKT
notes: as for B2
B6: D2L (designed binder)
chain: SGSGSREKELKQLISNLQILLLILLSEDPNNELVRKLQEKIKEAEEQGDPRRLKLIWWILNLIQMLQQLEQEDPNNELVKRLKELIKRALEEGDPRLLLLIHIILALIWLLQALEKEDPNNELVKRLKKLIEEALKEGDPRKLIQIALLLTWIATIQRLKKQDPNNELIKRAEETLEQSLKT
notes: as for B2
B7: D2M (designed binder)
chain: SGSGSEEEQIRLAQLAIQIIQYQVEKNGDEQLLRLIQEITEQLQKEGDERLIAILSTMFGIIWILEQVEKNGDEELLRLIQEITEKLARQGDERLIQIGAAMLAIIIILEQVKKNGDEQLLRLIREITRKLAEEGDQRLIWILHAMMAIIMSSEELEKNGDEELLQKLRELLEKIAKE
notes: as for B2
B8: D2N (designed binder)
chain: SGSGSEEEEIRLAQLTIQIIQYQVEKNGDEQLLRLIQEITEQLQKEGDERLIRILNAMFTIIWILEAVEKNGDEELLRLIQEITEKLARQGDERLIKILSAMAGIIWILEIVKKNGDEQLLRLIREITRKLAEEGDERLIQILANMHSIIISSEELEKNGDEELLQKLRELLEKIAKELEHHHHHH
notes: as for B2
B9: D2O (designed binder)
chain: SGSGSEEEEIRLAQLAIQIIQYQVEKNGDEQLLRLIQEITEQLQKEGDERLIRILLAMFAIILILEHVEKNGDEELLRLIQEITEKLARQGDERLIRILIAMAGIIWILELVKKNGDEQLLRLIREITRKLAEEGDERLIQILLAMHAIIISSEQLEKNGDEELLQKLRELLEKIAKE
notes: as for B2
B10: D2P (designed binder)
chain: SGSGSEEEEKRLIEKMSKFIWWFAQQLGDERILRAVEKLQQEIKENSPTPETFMTLINLLLSLLIWWAAQKLGDEKILEAVERLLQQIEENSPTPETHMTLAALAQSLAIWQQAQKLGDEDILEAVERLLEEIQRNSPTPSTLIKLTWLLLLLNNWQELQKQGDEEQLRSSEKAMKELKE
notes: as for B2
B11: D2Q (designed binder)
chain: SGSGSEEEEKRLIEKMSKFIWWFAQQLGDERILRAVEKLQQEIKENSPTPETYMTLGNLLLSLLIWWAAQQLGDEKILEAVERLLQQIEENSPTPETHLTLAILMSALAIWQQAQKLGDEDILEAVERLLEEIQRNSPTPSTMTKLLWLALLLNNWEELQKQGDEEQLRSSEKAMKELKE
notes: as for B2
B12: SP2 (designed binder)
chain: SGSGSSDEEFKFLATEAKMLITAAERLAGTDPELQEMVALIKKELEQAERTFRNGDKSEAQRQLEFVLTAARAVMNVAAAANAAGTDPELIEMVLRILKQLKEAIRTFQNGDQEEAETQLRFVLRAAIAVAVVAAALVLAGTDPELQEMVKQILEELKQAIETFARGDKEKALTQLLFVAWAAHAVAMIAAAANLAGTDPRLQQQVKEILEKLKEAIETFQKGDEEQAFRQLAEVLAEAALVALRAALTN
notes: as for B1
B13: D2R (designed binder)
chain: SGSGSEEEELKRLQTLIKYLQLLIQNAKWQNPDDELLRQVEELIEEMKKRLEENPNSQEDQALLKLLITIIALIIMILWLKSENPDDELLRQVEELIKEMIERLKENPNSQEDQALLQLLHAILGLILLIQQLKKQNPDDELLQQVEELIEEMIKRLKENPNSEKDQILLSFLALSLLSIFLIQTQKKQNPDDERLKQWEKQIKESIESSKE
notes: as for B2
B14: D2S (designed binder)
chain: SGSGSEEEELERLKEQLKIWQKLIKLILEQDPNDEQIRRILEQAEEIIQKLQEDPNNEELQRLIQLLFNLVAIIFSIKQILELDPNDEQIRRILEQAKEIIQKLQEDPNNEELFLLAHMLFALVAIILLIKLMLEQDPNDELIREILEQAKEIIQKLQEDPNNAELAMLIALLLSLVLWIWFMKFQLEQDPNDEEIRRQLEQLEERIRRTLE
notes: as for B2
B15: D2T (designed binder)
chain: SGSGSEEEELERLKEQLKIWQKLIKLILEQDPNDEQIRRILEQAEEIIQKLQEDPNNEELQRLIQLLFQLVLGIFIIKQILELDPNDEQIRRILEQAKEIIQKLQEDPNNEELYRLQGLLGMLVGIILLIKLMLEQDPNDELIREILEQAKEIIQKLQEDPNNQELLSLIHLLLALVLWIWFMKFQLEQDPNDEEIRRQLEQLEERIRRTLE
notes: as for B2
B16: tj79C2-H62A (designed binder)
chain: SGSGSRYDELNARLLILLAELAAERADIAAERTGDPRVRELARELKRLAQEAAEEVKRDPSSWSVLHALWLIVVAIEAAVRALEAAERTGDPEVRELARELVRLAVEAAEEVQRNPSSWDVFMALLLIVFAIEAAVRALEAAERTGDPEVRELARELVRLAVEAAEEVQRNPSSKEVDMALLLILIAILEAVLSLLRAERSGDPEKREKARERVREAVERAEEVQRDPSGW
notes: as for B2
B17: tj79C2-H65A (designed binder)
chain: SGSGSREDELLARYLILLAELAAEEADIAAERTGDPRVRELARELKRLAQEAAEEVKRDPSSSDVNHALHLIVLAILIAVEALEAAERTGDPEVRELARELVRLAVEAAEEVQRNPSSSDVLKALILILLAIIQAVKALEAAERTGDPEVRELARELVRLAVEAAEEVQRNPSSKEVTMALLLILIAILEAVLSLLRAERSGDPEKREKARERVREAVERAEEVQRDPSGW
notes: as for B2
B18: tj79C2-H65B (designed binder)
chain: B17 chain with L11F, E25R, H67L, I78A, I126M, L129V, I133L, K137Q, T178Y
notes: as for B2
B19: tj79C2-H65C (designed binder)
chain: SGSGSREDELIARYLILLAELAAERADIAAERTGDPRVRELARELKRLAQEAAEEVKRDPSSSDVFMALHLIVLAIQIAVKALEAAERTGDPEVRELARELVRLAVEAAEEVQRNPSSSDVFLALLLIVTAIMLAVEALEAAERTGDPEVRELARELVRLAVEAAEEVQRNPSSKEVLMALLLILIAILEAVLSLLRAERSGDPEKREKARERVREAVERAEEVQRDPSGW
notes: as for B2
B20: tj79C2-H65D (designed binder)
chain: SGSGSREDELQARLLILLIELAAERADIAAERTGDPRVRELARELKRLAQEAAEEVKRDPSSSDVWLALHLIVIAILIAVEALEAAERTGDPEVRELARELVRLAVEAAEEVQRNPSSSDVLKALMLILIAILLLLEALEAAERTGDPEVRELARELVRLAVEAAEEVQRNPSSKEVQMALLLILIAILEAILSLLRAERSGDPEKREKARERVREAVERAEEVQRDPSGW
notes: as for B2
B21: tj79C2-H65E (designed binder)
chain: B20 chain with Q11W, W66L, K123I
notes: as for B2
B22: tj79C2-H69A (designed binder)
chain: SGSGSREDELQARLQLLAAELAAEEADIAAERTGDPRVRELARELKRLAQEAAEEVKRDPSSSDVNAALVLITHAIMLAVEALKAAERTGDPEVRELARELVRLAVEAAEEVQRNPSSSDVNKALFLIMMAIITAVTALEAAERTGDPEVRELARELVRLAVEAAEEVQRNPSSKEVDMALLLILIAILEAVLSLLRAERSGDPEKREKARERVREAVERAEEVQRDPSGW
notes: as for B2

Target: the molecule itself
Assay: size-exclusion chromatography, self-association (homodimer)
Protocol: FIG. 7. Size exclusion chromatography (SEC) traces of purified SP apo-proteins. Proteins were injected as 0.5 mL aliquots onto a Superdex™ 200 Increase 10/300 GL column (Cytiva Life Sciences). The narrow, isolated peaks indicate that the samples contain monodisperse protein. Running buffer was 150 mM NaCl, 10 mM Tris at pH 8. Proteins were purified by Ni-NTA and one round of SEC prior to collecting the data shown.
Proteins were purified by Ni-NTA and size-exclusion chromatography (SEC) (FIG. 7). […] A slightly lower predicted radius of gyration (Rg) value compared to experimental SAXS data is likely due to a dense hydration shell around the highly charged SP proteins (Svergun et al. 1998; Kim et al. 2016). The far ultraviolet (UV) circular dichroism (CD) spectra of three SP proteins that expressed in high yield (≥140 mg/L) show the proteins are highly α-helical with and without the synthetic Chl a derivative, Zn pheophorbide a methyl ester (ZnPPaM). Thermal denaturation curves monitored by the CD signal at 222 nm indicate that all three proteins are highly thermostable in the apo- and holo-states (FIG. 2).

Protein	binding result
B1	binds
B2	binds
B3	binds
B4	binds
B5	binds
B6	binds
B7	binds
B8	binds
B9	binds
B10	binds
B11	binds
B12	binds
B13	binds
B14	binds
B15	binds
B16	binds
B17	binds
B18	binds
B19	binds
B20	binds
B21	binds
B22	binds
